The values that follow come from paper PMC11865060, “Novel human single-domain antibodies exert potent anti-tumor activity by targeting EGF-like repeat epitope of EpCAM” (Frontiers in Pharmacology, 2025).

B1: aEP3B2 (VHH)
VHH: QVQLLESGGGLVQPGGSLRLSCAASGDRVSYKFMAWVRQAPGKGLEWVSSIRGNDGSTYYADSVKGRFTISRDNSKNTLYLQMNSLRAEDTAVYYCARKGKRHYELPYWGQGTLVTVSS
notes: fully human VH single-domain antibody from a phage library (Source BioScience); Human VH-only sdAb (not camelid), not Fc-fused; cloned into pET-22b by Not I and Nco I sites; also called anti-EpCAM sdAb aEP3B2; source: E. coli BL21 (DE3), purified (Ni-NTA)
B2: aEP3D4 (VHH)
VHH: QVQLLESGGGLVQPGGSLRLSCAASGVKFSNHDMTWVRQAPGKGLEWVSAINSGGGSTYYADSVKGRFTISRDNSKNTLYLQMNSLRAEDTAVYYCARMGRQARVPHHMRFWGQGTLVTVSS
notes: fully human VH single-domain antibody from a phage library (Source BioScience); Human VH-only sdAb (not camelid), not Fc-fused; cloned into pET-22b by Not I and Nco I sites; also called anti-EpCAM sdAb aEP3D4; source: E. coli BL21 (DE3), purified (Ni-NTA)
B3: aEP4D11 (VHH)
VHH: QVQLLESGGGLVQPGGSLRLSCAASGVKIIPKSMAWVRQAPGKGLEWVSTIETADGSTYYADSVKGRFTISRDNSKNTLYLQMNSLRAEDTAVYYCASVSRSRTNSLKSWGQGTLVTVSS
notes: fully human VH single-domain antibody from a phage library (Source BioScience); Human VH-only sdAb (not camelid), not Fc-fused; cloned into pET-22b by Not I and Nco I sites; also called anti-EpCAM sdAb aEP4D11; source: E. coli BL21 (DE3), purified (Ni-NTA)
B4: aEP4G2 (VHH)
VHH: QVQLLESGGGLVQPGGSLRLSCAASGFTFSYNNMAWVRQAPGKGLEWVSAIEGKDGSTYYADSVKGRFTISRDNSKNTLYLQMNSLRAEDTAVYYCARRKGRTEKLSYWGQGTLVTVSS
notes: fully human VH single-domain antibody from a phage library (Source BioScience); Human VH-only sdAb (not camelid), not Fc-fused; cloned into pET-22b by Not I and Nco I sites; also called anti-EpCAM sdAb aEP4G2; source: E. coli BL21 (DE3), purified (Ni-NTA)
B5: aEP5A5 (VHH)
VHH: QVQLLESGGGLVQPGGSLRLSCAASGVRFSNEVMAWVRQAPGKGLEWVSGIEMKNGSTYYADSVKGRFTISRDNSKNTLYLQMNSLRAEDTAVYYCASWGHSRRQQSKFNSWGQGTLVTVSS
notes: fully human VH single-domain antibody from a phage library (Source BioScience); Human VH-only sdAb (not camelid), not Fc-fused; cloned into pET-22b by Not I and Nco I sites; also called anti-EpCAM sdAb aEP5A5; source: E. coli BL21 (DE3), purified (Ni-NTA)

T1 sequence (P16422 24-265): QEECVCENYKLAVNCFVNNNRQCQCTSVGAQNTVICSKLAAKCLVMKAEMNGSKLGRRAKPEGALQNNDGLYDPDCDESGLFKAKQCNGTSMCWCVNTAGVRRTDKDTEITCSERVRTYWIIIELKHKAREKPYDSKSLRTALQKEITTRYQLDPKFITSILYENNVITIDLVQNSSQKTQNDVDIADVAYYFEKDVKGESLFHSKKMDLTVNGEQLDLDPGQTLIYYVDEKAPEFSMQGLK

The first test concerns the target T1, EpCAM complete extracellular domain protein (Homo sapiens (assumed), UniProt P16422).
T1 construct: Epithelial cell adhesion molecule (EpCAM), complete extracellular domain, bought; Commercial protein; no catalogue number, limits or tags printed; source: bought: Shanghai Bootech BioSci. and Technol
As to the kind of experiment: ELISA; 0.2 μg of antigen coated per well at 4°C overnight; purified sdAb at 1 μg/mL, RT 1 h; detection with HRP-conjugated protein A, absorbance at 450 nm. The conditions noted are these: both partners purified.
In the case of B1, the binding result was “binds”.
Regarding B2, the binding result is “binds”.
On the same count and under the same terms, the same measure for B3: “binds”.
On the same count and under the same terms, the entry for B4 is “binds”.

For a further test, the target named is T2, EpCAM on DU145, PC3 and MCF-7 cancer cells (Homo sapiens (DU145, PC3, MCF-7), UniProt P16422).
T2 construct: Epithelial cell adhesion molecule (EpCAM), endogenous on the three EpCAM+ human cancer cell lines DU145, PC3 and MCF-7; also called Epithelial cell adhesion molecule; source: endogenous, on DU145, PC3 and MCF-7 cells
T2 sequence (P16422 24-314): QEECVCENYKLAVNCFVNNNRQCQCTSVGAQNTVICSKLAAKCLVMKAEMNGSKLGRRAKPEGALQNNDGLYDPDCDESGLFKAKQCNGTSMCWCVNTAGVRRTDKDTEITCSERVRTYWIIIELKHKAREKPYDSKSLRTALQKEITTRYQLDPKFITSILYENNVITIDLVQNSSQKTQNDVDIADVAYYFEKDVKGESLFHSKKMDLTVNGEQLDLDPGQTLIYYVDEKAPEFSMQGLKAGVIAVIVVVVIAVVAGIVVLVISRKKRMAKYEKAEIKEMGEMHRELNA
As to the kind of experiment: flow cytometry on cells; cells (1 × 10^6/mL) incubated with the sdAbs at 4°C for 1 h; detection with FITC-conjugated protein A; 293T and 3T3 cells as negative controls. To be noted: one partner purified.
In the case of B1, the binding result is on record as “binds”.
On the same count and under the same terms, the same measure for B2: “binds”.
Still for that read-out and setting: the entry for B5 is “binds”; for B3 it is “binds”; for B4 it is “binds”.
